Experimental data as given in paper PMC10138348, “Continuous Fluorescent Sirtuin Activity Assay Based on Fatty Acylated Lysines” (International Journal of Molecular Sciences, 2023).

What was measured:
[1] = molecular target: F6, deacylated fluorescein-labelled peptide product of F4 (fluorophore in +2 position); assay: fluorescence polarisation; BSA in serial dilution from 752 µM, labelled peptide fixed; 384-well plate, 20 mM Tris-HCl pH 7.8, 150 mM NaCl, 5 mM MgCl2; three independent replicates
[2] = molecular target: F4, TNFα-derived peptide with a myristoylated lysine and fluorescein-labelled cysteine in the +2 position; assay: as above
[3] = molecular target: F6, deacylated fluorescein-labelled peptide product of F4 (fluorophore in +2 position); assay: other fluorescence titration; fluorescence spectra of the labelled peptide with increasing concentrations of BSA; excitation 490 nm, relative intensity at 517 nm against BSA concentration; n = 1
[4] = molecular target: F4, TNFα-derived peptide with a myristoylated lysine and fluorescein-labelled cysteine in the +2 position; assay: as above

Chain of bovine serum albumin (P02769 25-607): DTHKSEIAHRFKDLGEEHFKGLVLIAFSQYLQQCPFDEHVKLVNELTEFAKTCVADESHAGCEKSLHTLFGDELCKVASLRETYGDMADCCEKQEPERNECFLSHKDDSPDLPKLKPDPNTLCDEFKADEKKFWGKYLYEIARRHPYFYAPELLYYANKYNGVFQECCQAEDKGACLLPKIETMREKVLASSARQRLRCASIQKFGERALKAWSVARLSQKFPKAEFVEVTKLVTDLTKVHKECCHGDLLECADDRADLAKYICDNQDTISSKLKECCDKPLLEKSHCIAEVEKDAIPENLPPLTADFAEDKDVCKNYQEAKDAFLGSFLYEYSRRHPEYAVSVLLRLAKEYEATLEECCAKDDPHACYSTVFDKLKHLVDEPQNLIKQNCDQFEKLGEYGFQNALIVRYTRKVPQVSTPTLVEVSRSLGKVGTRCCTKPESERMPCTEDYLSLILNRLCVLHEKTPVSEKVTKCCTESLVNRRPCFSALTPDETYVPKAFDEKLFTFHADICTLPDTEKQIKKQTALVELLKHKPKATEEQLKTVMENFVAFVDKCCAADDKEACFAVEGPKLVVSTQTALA

fold KD against the F4/BSA complex [1]: > 100 fold
Kd [2]: 1.6 µM
fold KD against the F4/BSA complex [3]: > 100 fold
Kd [4]: 1.2 µM
Substance: bovine serum albumin (from UniProt P02769 25-607) (natural protein)
